Bridges are numbered along the chain shown (N, C = ends). Where no end group is shown, it is not given here. [ ]: non-standard residue; d: D form. Nle = CCCC[C@H](N)C(=O)O; Dap = NC[C@H](N)C(=O)O A value given as a limit tells only on which side of the number the result lay.

What all share (assay): cell-based or functional assay
Test [1] has as its target T1, mouse melanocortin-1 receptor (mouse, UniProt Q01727 1-315).
For test [2], the target named is T2, mouse melanocortin-3 receptor (mouse, UniProt P33033 1-323).
For test [3], the target named is T1, mouse melanocortin-1 receptor. The source holds these as a separate data set.
The target in test [4] is T2, mouse melanocortin-3 receptor. This is another data set of the same source.
Test [5] concerns the target mouse melanocortin-5 receptor (mouse, UniProt P41149 1-325).
For test [6], the target named is mouse melanocortin-4 receptor (mouse, UniProt P56450 1-332).
Chain of mouse melanocortin-4 receptor (P56450 whole entry): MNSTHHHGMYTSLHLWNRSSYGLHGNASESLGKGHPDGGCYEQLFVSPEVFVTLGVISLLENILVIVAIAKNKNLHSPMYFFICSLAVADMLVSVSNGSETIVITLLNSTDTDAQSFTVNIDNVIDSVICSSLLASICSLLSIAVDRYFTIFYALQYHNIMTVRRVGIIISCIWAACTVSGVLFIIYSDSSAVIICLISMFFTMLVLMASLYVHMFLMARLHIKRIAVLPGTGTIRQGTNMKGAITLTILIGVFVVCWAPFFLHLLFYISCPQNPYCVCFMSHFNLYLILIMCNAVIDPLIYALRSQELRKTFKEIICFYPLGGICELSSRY

Chain of mouse melanocortin-5 receptor (P41149 whole entry): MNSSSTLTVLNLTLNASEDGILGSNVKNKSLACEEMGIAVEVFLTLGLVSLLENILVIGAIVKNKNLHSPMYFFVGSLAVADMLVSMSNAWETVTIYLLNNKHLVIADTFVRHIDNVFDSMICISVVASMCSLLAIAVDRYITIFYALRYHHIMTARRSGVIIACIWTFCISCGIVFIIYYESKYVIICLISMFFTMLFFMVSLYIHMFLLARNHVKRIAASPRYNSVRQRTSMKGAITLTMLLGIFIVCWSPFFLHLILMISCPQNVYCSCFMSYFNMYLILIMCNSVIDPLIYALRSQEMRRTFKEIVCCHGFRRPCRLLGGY
T1 sequence (Q01727 whole entry): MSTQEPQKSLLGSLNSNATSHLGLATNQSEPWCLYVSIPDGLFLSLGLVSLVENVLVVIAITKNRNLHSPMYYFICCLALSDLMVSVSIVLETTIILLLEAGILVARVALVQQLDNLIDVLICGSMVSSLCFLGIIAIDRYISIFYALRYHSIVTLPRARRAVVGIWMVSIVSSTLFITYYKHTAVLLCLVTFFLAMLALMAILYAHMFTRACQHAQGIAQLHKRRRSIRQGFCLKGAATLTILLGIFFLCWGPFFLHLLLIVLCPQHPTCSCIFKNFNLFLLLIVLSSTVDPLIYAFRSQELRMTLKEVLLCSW
T2 sequence (P33033 whole entry): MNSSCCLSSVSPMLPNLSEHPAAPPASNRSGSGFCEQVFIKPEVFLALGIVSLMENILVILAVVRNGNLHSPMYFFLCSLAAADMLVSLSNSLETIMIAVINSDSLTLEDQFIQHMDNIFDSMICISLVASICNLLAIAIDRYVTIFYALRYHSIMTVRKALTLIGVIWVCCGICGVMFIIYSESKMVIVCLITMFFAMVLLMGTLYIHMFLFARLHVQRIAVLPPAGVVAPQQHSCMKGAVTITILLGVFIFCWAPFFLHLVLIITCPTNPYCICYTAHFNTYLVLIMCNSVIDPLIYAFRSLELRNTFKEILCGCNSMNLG

B1: SEQ ID NO:17 (Ac-Ser-Tyr-Ser-Nle-Glu-His-Arg-DPhe-Phe-Gly-Lys-Pro-Val-NH2) (peptide)
peptide: Ac-SYS[Nle]EHR[dF]FGKPV-NH2
SMILES: CCCC[C@H](NC(=O)[C@H](CO)NC(=O)[C@H](Cc1ccc(O)cc1)NC(=O)[C@H](CO)NC(C)=O)C(=O)N[C@@H](CCC(=O)O)C(=O)N[C@@H](Cc1c[nH]cn1)C(=O)N[C@@H](CCCNC(=N)N)C(=O)N[C@H](Cc1ccccc1)C(=O)N[C@@H](Cc1ccccc1)C(=O)NCC(=O)N[C@@H](CCCCN)C(=O)N1CCC[C@H]1C(=O)N[C@H](C(N)=O)C(C)C
Take B1: the “agonist potency, fold change against SEQ ID NO:15” value in test [1] worked out at 8 fold. Besides, in test [2], the “fold decrease in agonist potency, fold change against SEQ ID NO:15” value was 13 fold. Moreover, the entries for the “EC50 (agonist)” value in test [3], in test [4] and in test [5] were 0.00728 µM, 6.21 µM and 0.45 µM, respectively.

B2: SEQ ID NO:20 (Ac-Nle-c[Asp-His-Arg-Phe-Phe-Lys]) (peptide)
peptide: Ac-[Nle]DHRFFK-NH2
modifications: lactam 2-7
SMILES: CCCC[C@H](NC(C)=O)C(=O)N[C@H]1CC(=O)NCCCC[C@@H](C(N)=O)NC(=O)[C@H](Cc2ccccc2)NC(=O)[C@H](Cc2ccccc2)NC(=O)[C@H](CCCNC(=N)N)NC(=O)[C@H](Cc2c[nH]cn2)NC1=O
Consider B2, for which the “EC50 (agonist; Partial agonist)” value in test [3] worked out at 38.3 µM. Moreover, the “EC50 (agonist)” value in test [4], in test [6] and in test [5] was greater than 100 µM in each case.

B3: SEQ ID NO:19 (Ac-Nle-c[Asp-His-Ala-Ala-Ala-Lys]) (peptide)
peptide: Ac-[Nle]DHAAAK-NH2
modifications: lactam 2-7
SMILES: CCCC[C@H](NC(C)=O)C(=O)N[C@H]1CC(=O)NCCCC[C@@H](C(N)=O)NC(=O)[C@H](C)NC(=O)[C@H](C)NC(=O)[C@H](C)NC(=O)[C@H](Cc2c[nH]cn2)NC1=O
In the case of B3, the “EC50 (agonist)” value in test [3], in test [4], in test [6] and in test [5] was greater than 100 µM in each case.

B4: SEQ ID NO:14 (Ac-Ser-Tyr-Ser-Nle-Glu-His-Phe-Phe-Arg-Gly-Lys-Pro-Val) (peptide)
peptide: Ac-SYS[Nle]EHFFRGKPV-NH2
SMILES: CCCC[C@H](NC(=O)[C@H](CO)NC(=O)[C@H](Cc1ccc(O)cc1)NC(=O)[C@H](CO)NC(C)=O)C(=O)N[C@@H](CCC(=O)O)C(=O)N[C@@H](Cc1c[nH]cn1)C(=O)N[C@@H](Cc1ccccc1)C(=O)N[C@@H](Cc1ccccc1)C(=O)N[C@@H](CCCNC(=N)N)C(=O)NCC(=O)N[C@@H](CCCCN)C(=O)N1CCC[C@H]1C(=O)N[C@H](C(N)=O)C(C)C
With B4, the figures for the “EC50 (agonist; Partial agonist)” value in test [3], in test [4] and in test [5] were 7.22 µM, 20.5 µM and 24.4 µM, respectively. Also, the “EC50 (agonist)” value in test [6] was greater than 100 µM.

B5: SEQ ID NO:4 (Tyr-c[Asp-Trp-Arg-Phe-Asn-Ala-Phe-Dpr]-Tyr) (peptide)
peptide: YDWRFNAF[Dap]Y-NH2
modifications: lactam 2-9; N-terminus assumed
SMILES: C[C@@H]1NC(=O)[C@H](CC(N)=O)NC(=O)[C@H](Cc2ccccc2)NC(=O)[C@H](CCCNC(=N)N)NC(=O)[C@H](Cc2c[nH]c3ccccc23)NC(=O)[C@@H](NC(=O)[C@@H](N)Cc2ccc(O)cc2)CC(=O)NC[C@@H](C(=O)N[C@@H](Cc2ccc(O)cc2)C(N)=O)NC(=O)[C@H](Cc2ccccc2)NC1=O
B5: the “EC50 (agonist)” value was 13.5 µM in test [3], greater than 100 µM in test [4] and greater than 100 µM in test [5]. Also, the “EC50 (agonist; Partial agonist)” value in test [6] was 15.9 µM.
Consider Ac-SYS[Nle]EHRFFGKPV-NH2 [SEQ ID NO:15 (Ac-Ser-Tyr-Ser-Nle-Glu-His-Arg-Phe-Phe-Gly-Lys-Pro-Val)], for which the “EC50 (agonist)” value in test [3] amounted to 0.0599 µM; in test [4] it was 0.48 µM; in test [6], 0.93 µM; in test [5] it was 0.327 µM.

B6: SEQ ID NO:8 (Tyr-c[Asp-His-Arg-Phe-Phe-Asn-Ala-Phe-Dpr]-Tyr) (peptide)
peptide: YDHRFFNAF[Dap]Y-NH2
modifications: lactam 2-10; N-terminus assumed
SMILES: C[C@@H]1NC(=O)[C@H](CC(N)=O)NC(=O)[C@H](Cc2ccccc2)NC(=O)[C@H](Cc2ccccc2)NC(=O)[C@H](CCCNC(=N)N)NC(=O)[C@H](Cc2c[nH]cn2)NC(=O)[C@@H](NC(=O)[C@@H](N)Cc2ccc(O)cc2)CC(=O)NC[C@@H](C(=O)N[C@@H](Cc2ccc(O)cc2)C(N)=O)NC(=O)[C@H](Cc2ccccc2)NC1=O
B6: the “fold decrease in agonist potency, fold change against SEQ ID NO:3” value in test [1] is 8 fold. For the same molecule, the “EC50 (agonist)” value in test [3] is 13.3 µM; in test [6], greater than 100 µM; in test [5], 100 µM.

B7: SEQ ID NO:13 (Ac-Ser-Tyr-Ser-Nle-Glu-Phe-Phe-Arg-Gly-Lys-Pro-Val) (peptide)
peptide: Ac-SYS[Nle]EFFRGKPV-NH2
SMILES: CCCC[C@H](NC(=O)[C@H](CO)NC(=O)[C@H](Cc1ccc(O)cc1)NC(=O)[C@H](CO)NC(C)=O)C(=O)N[C@@H](CCC(=O)O)C(=O)N[C@@H](Cc1ccccc1)C(=O)N[C@@H](Cc1ccccc1)C(=O)N[C@@H](CCCNC(=N)N)C(=O)NCC(=O)N[C@@H](CCCCN)C(=O)N1CCC[C@H]1C(=O)N[C@H](C(N)=O)C(C)C
In the case of B7, in test [3], the “EC50 (agonist; Partial agonist)” value was found to be 19.9 µM. For the same molecule, the “EC50 (agonist)” value in test [4], in test [6] and in test [5] was greater than 100 µM in each case.

B8: SEQ ID NO:12 (Ac-Ser-Tyr-Ser-Nle-Glu-His-Ala-Ala-Ala-Gly-Lys-Pro-Val) (peptide)
peptide: Ac-SYS[Nle]EHAAAGKPV-NH2
SMILES: CCCC[C@H](NC(=O)[C@H](CO)NC(=O)[C@H](Cc1ccc(O)cc1)NC(=O)[C@H](CO)NC(C)=O)C(=O)N[C@@H](CCC(=O)O)C(=O)N[C@@H](Cc1c[nH]cn1)C(=O)N[C@@H](C)C(=O)N[C@@H](C)C(=O)N[C@@H](C)C(=O)NCC(=O)N[C@@H](CCCCN)C(=O)N1CCC[C@H]1C(=O)N[C@H](C(N)=O)C(C)C
As for B8, the “EC50 (agonist)” value in test [3], in test [4], in test [6] and in test [5] was greater than 100 µM in each case.

B9: SEQ ID NO:11 (Ac-Ser-Tyr-Ser-Nle-Tyr-c[Asp-Arg-Phe-Phe-Asn-Ala-Phe-Dpr]-Tyr-Lys-Pro-Val) (peptide)
peptide: Ac-SYS[Nle]YDRFFNAF[Dap]YKPV-NH2
modifications: lactam 6-13
SMILES: CCCC[C@H](NC(=O)[C@H](CO)NC(=O)[C@H](Cc1ccc(O)cc1)NC(=O)[C@H](CO)NC(C)=O)C(=O)N[C@@H](Cc1ccc(O)cc1)C(=O)N[C@H]1CC(=O)NC[C@@H](C(=O)N[C@@H](Cc2ccc(O)cc2)C(=O)N[C@@H](CCCCN)C(=O)N2CCC[C@H]2C(=O)N[C@H](C(N)=O)C(C)C)NC(=O)[C@H](Cc2ccccc2)NC(=O)[C@H](C)NC(=O)[C@H](CC(N)=O)NC(=O)[C@H](Cc2ccccc2)NC(=O)[C@H](Cc2ccccc2)NC(=O)[C@H](CCCNC(=N)N)NC1=O
B9: the “EC50 (agonist)” value was 1.96 µM in test [3] and greater than 100 µM in test [5]. Besides, the “pA2 (antagonist)” value in test [4] and in test [6] was 6.2 each time.

These data come from US7084111 (UNIVERSITY OF FLORIDA RESEARCH FOUNDATION, dated 2006).
